From patent publication US20250084176A1

Biological target: mouse CD137, full length, on cells (mouse) (UniProt P20334)
Assay: cell-based or functional assay

mouse CD137, full length, on cells (mouse), sequence (P20334 24-256): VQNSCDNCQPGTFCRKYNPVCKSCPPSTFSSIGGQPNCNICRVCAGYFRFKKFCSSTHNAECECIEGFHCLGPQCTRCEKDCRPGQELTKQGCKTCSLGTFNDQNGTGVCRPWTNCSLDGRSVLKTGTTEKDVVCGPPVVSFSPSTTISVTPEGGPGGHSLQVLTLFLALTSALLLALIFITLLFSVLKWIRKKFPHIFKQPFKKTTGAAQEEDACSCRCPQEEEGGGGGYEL

**Q.** With G1-AA/Lob12.3 (antibody) as the substance, how does the IL-2 release, mouse CD137 DO11.10 T cell activation assay, Protein L: +XL EC50 read?
**A.** Its IL-2 release, mouse CD137 DO11.10 T cell activation assay, Protein L: +XL EC50 is 2.26 nM.

**Q.** What about the IL-2 release, mouse CD137 DO11.10 T cell activation assay, Protein L: +XL Emax of the same substance?
**A.** Its IL-2 release, mouse CD137 DO11.10 T cell activation assay, Protein L: +XL Emax is 21300 pg/mL.
